Tests used:
[1] = target: CLEC12A expressed on cells (CLEC12A-transfected CHO cells; HL60 cells) (UniProt Q5QGZ9); experiment: flow cytometry on CLEC12A-transfected CHO cells
[2] = target: extracellular domain of CLEC12A (amino acids 75 to 275) coupled to a His-tag (Sino Biological, cat.no. 11896-H07H) (UniProt Q5QGZ9); experiment: ELISA, extracellular domain of CLEC12A coated at 2 µg/ml
[3] = target: CLEC12A expressed on cells (CLEC12A-transfected CHO cells; HL60 cells) (UniProt Q5QGZ9); experiment: flow cytometry on HL60 cells

CLEC12A expressed on cells (CLEC12A-transfected CHO cells; HL60 cells), sequence (Q5QGZ9 whole entry, the tested form may be a part): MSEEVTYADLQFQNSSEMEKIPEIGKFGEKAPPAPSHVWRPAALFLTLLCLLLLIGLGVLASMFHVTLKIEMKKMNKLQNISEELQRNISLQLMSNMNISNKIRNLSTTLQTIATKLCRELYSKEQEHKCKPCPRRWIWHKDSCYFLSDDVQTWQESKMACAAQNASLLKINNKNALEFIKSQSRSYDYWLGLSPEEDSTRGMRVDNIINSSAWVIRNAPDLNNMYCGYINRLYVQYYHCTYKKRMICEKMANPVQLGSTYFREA
extracellular domain of CLEC12A (amino acids 75 to 275) coupled to a His-tag (Sino Biological, cat.no. 11896-H07H), sequence (Q5QGZ9 65-265 limits assumed): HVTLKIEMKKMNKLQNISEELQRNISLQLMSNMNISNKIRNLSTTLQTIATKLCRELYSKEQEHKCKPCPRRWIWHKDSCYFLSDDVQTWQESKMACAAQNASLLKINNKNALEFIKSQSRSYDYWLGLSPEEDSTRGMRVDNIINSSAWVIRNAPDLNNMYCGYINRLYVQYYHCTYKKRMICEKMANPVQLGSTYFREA

mean fluorescent intensity [1]: 289
optical density [2]: 0.127
mean fluorescent intensity [3]: 116
Substance: irrelevant IgG1 isotype control mAb (antibody)

Source: patent publication US20250026823A1
